Experimental findings from US20260055188A1 (SHENGHE CHINA BIOPHARMACEUTICAL, published 2026) are described below.

The target of test [1] is T1, human CD24 on MCF-7 tumor cells (human, UniProt P25063 27-59).
T1 construct: whole, on cells; also called CD24 protein; MCF-7 tumor cells with high expression of human CD24
T1 chain (looked up): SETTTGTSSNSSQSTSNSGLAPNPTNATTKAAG
Briefly: flow cytometry on MCF-7 cells, 150 nM antibody, anti-human IgG Fc detection. The method, then:
100 μL of dilution was added to the blank control group, and 100 μL of fluorescent secondary antibody dilution was added to the rest of the sample groups respectively. After incubation for 0.5 h at room temperature and 4° C. protected from light, PBS was added to wash and centrifuged (3000 rpm, 3 min) twice. After discarding the supernatant, 80 μL of the dilution was added and resuspended.
(Flow cytometry measures light scatter and fluorescence of single cells or particles in a stream.)

Test [2] addresses T2, Human-TNFR2-His (manufacturer: SINO, CAT: 10417-H08H) (human, UniProt P20333 23-257).
T2 construct: Bought protein; also called human TNFR2 protein; TNFR2 protein; not shown: His tag
T2 sequence (looked up): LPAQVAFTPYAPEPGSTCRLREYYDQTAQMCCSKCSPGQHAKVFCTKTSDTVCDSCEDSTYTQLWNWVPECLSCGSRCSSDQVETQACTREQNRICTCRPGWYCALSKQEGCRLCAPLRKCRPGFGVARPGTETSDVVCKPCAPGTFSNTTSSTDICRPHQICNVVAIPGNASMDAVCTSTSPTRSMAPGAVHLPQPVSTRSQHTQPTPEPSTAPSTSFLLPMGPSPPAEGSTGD
Briefly: ELISA: Human-TNFR2-His coated (0.3 µg/mL), antibody titrated, goat anti-human IgG Fc detection, OD450 (Example 10). The method, then:
(§1) Human-TNFR2-His (manufacturer: SINO, CAT: 10417-H08H, LOT: LC12SE2902) was diluted to 0.3 μg/mL with a coating solution (1×PBS, pH7.4), and coated into a 96-well ELISA plate at 100 μL/well overnight at 4° C. The coating solution was poured off. Each well was washed with 1×PBST at 300 μL, washed 4 times with a plate washer, and patted dry on a flat paper. It was blocked with 3% skim milk powder at 300 μL/well, and incubated at 37° C. for 1 h. The blocking solution was poured off, washed 4 times with a plate washer, and patted dry on a flat paper. Negative control and positive control were set up. […] The positive control and antibody were diluted to 10 μg/mL with 3% skim milk powder as the starting concentration, and then diluted by 3-fold gradient (11 gradients in total). A blank well was set up and only the diluent was added. It was incubated at 37° C. for 1 h at 100 μL/well. The liquid in the well was discarded, washed 4 times with a plate washer, and patted dry on a flat paper. Goat anti-human IgG Fc was diluted with 3% skim milk powder at 1:20000, and incubated at 37° C. for 1 h at 100 μL/well. It was washed 6 times with a plate washer, and patted dry on a flat paper. TMB color developing solution was added at 100 μL/well, and wrapped with aluminum foil. Color development was performed at 37° C. in the dark for 8 min. […] Readings were taken at 450 nm on an ELISA reader.
In general terms: In an ELISA, binding on a coated surface is turned into a signal by an enzyme label.

The target of test [3] is T2, Human-TNFR2-His (manufacturer: SINO, …). Described as above. The method, then:
as §1
This is another data set of the same source.

The target is the same in test [4]. Nature of the test: BLI, antibody on AHC sensor, 100 nM human-TNFR2-His in solution. The method, then:
The AHC sensor was soaked in 0.02% PBST (0.02% Tween 20, pH 7.4, 1×PBS) as a buffer for 600 s to remove the sucrose covering the sensor surface. The AHC sensor was equilibrated with 0.02% PBST (0.02% Tween 20, pH 7.4, 1×PBS) as a buffer for 60 s, the antibody in the sample plate was solidified for 300 s, and the secondary equilibration buffer was used for 180 s. 100 nM human-TNFR2-His (manufacturer: SINO, CAT: 10417-H08H, LOT: LC12SE2902) protein was bound to the antibody for 300 s and then dissociated for 600 s. After dissociation, 10 mM glycine (pH 2.0) was used as a regeneration buffer for 30 s. The sensor was regenerated with 10 mM glycine (pH 2.0).
In general terms: In BLI a coated tip is dipped into the sample, and binding shifts an interference pattern.

The target of test [5] is T3, Human-B7H3 His (manufacturer: Acro, CAT: TB73-H52E2) (human, UniProt Q5ZPR3-2 29-245).
T3 construct: also called human B7H3 protein; B7H3 protein; not shown: His tag
T3 sequence (looked up): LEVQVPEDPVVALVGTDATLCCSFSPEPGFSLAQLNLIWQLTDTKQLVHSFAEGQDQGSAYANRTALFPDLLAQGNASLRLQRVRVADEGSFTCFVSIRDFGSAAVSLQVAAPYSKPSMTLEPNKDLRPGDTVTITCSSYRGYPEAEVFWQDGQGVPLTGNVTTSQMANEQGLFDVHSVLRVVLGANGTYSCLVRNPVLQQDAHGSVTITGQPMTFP
Briefly: BLI, antibody on AHC sensor, 100 nM His-tagged protein (Acro TB73-H52E2) in solution.

Test [6] deals with T4, Human-B7H3 Fc (manufacturer: Acro, CAT: B73-H5253) (human, UniProt Q5ZPR3-2 29-245).
T4 construct: Bought protein; not shown: Fc
T4 sequence (looked up): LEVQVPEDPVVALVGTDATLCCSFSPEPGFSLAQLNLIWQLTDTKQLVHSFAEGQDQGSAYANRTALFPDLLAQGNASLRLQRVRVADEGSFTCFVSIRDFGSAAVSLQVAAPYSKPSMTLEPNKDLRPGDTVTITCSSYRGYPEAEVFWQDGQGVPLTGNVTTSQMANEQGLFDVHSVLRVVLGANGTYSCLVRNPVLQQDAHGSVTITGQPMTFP
Nature of the test: bridging ELISA: Human-B7H3 Fc coated (0.5 µg/mL), antibody titrated, then Human-TNFR2-His (0.5 µg/mL), HRP-labeled anti-His detection, OD450 (Example 4); half-maximal concentration of the bridging signal. The method, then:
Human-B7H3 Fc (manufacturer: Acro, CAT: B73-H5253, LOT: 2053b-201XF1-UD) was diluted to 0.5 μg/mL with a coating solution (1×PBS, pH7.4) and coated into a 96-well ELISA plate at 100 μL/well at 4° C. overnight. The coating solution was poured off. Each well was washed with 1×PBST at 300 μL, washed 4 times with a plate washer, and patted dry on a flat paper. It was blocked with 3% skim milk powder at 300 μL/well, and incubated at 37° C. for 1 h. The blocking solution was poured off, washed 4 times with a plate washer, and patted dry on a flat paper. […] Starting at 300 nM, which was used as the initial concentration for 3-fold dilution, a total of 8 gradients were diluted, and a blank well was set up, and only diluent was added. It was incubated at 37° C. for 1 h at 100 μL/well. The liquid in the well was discarded, washed 4 times with a plate washer, and patted dry on a flat paper. Human-TNFR2-His (manufacturer: Sino, CAT: 10417-H08H, LOT: LC12SE2902) was diluted to 0.5 μg/mL, 100 μL was added to each well, and incubated at room temperature for 1 h. The plate was washed 3 times with PBST, and then the HRP-labeled his antibody was diluted with sample diluent at 1:10000, 100 μL was added to each well, and incubated at room temperature for 1 h. It was washed 6 times with a plate washer, and patted dry on a flat paper. […] Readings were taken at 450 nm on an ELISA reader.

In test [7] the target is T3, Human-B7H3 His (manufacturer: Acro, …). Briefly: ELISA: Human-B7H3 His coated (0.3 µg/mL), antibody titrated, goat anti-human IgG Fc detection, OD450 (Example 3). The method, then:
Human-B7H3 His (manufacturer: Acro, CAT: TB73-H52E2, LOT: 2052-21AXF1-YS) was diluted to 0.3 μg/mL with a coating solution (1×PBS, pH7.4), and coated into a 96-well ELISA plate at 100 μL/well overnight at 4° C. The coating solution was poured off. Each well was washed with 1×PBST at 300 μL, washed 4 times with a plate washer, and patted dry on a flat paper. It was blocked with 3% skim milk powder at 300 μL/well, and incubated at 37° C. for 1 h. The blocking solution was poured off, washed 4 times with a plate washer, and patted dry on a flat paper. Negative control and positive control were set up. […] The variable region of the antibody sequence of the positive control consists of SEQ ID NO: 1 and SEQ ID NO: 5, with the constant region of human IgG1 added (SEQ ID NO: 85 and SEQ ID NO: 86). The positive control and antibody were diluted to 10 μg/mL with 3% skim milk powder as the starting concentration, and then diluted by 3-fold gradient (11 gradients in total). A blank well was set up and only the diluent was added. It was incubated at 37° C. for 1 h at 100 μL/well. The liquid in the well was discarded, washed 4 times with a plate washer, and patted dry on a flat paper. Goat anti-human IgG Fc was diluted with 3% skim milk powder at 1:20000, and incubated at 37° C. for 1 h at 100 μL/well. It was washed 6 times with a plate washer, and patted dry on a flat paper. TMB color developing solution was added at 100 μL/well, and wrapped with aluminum foil. Color development was performed at 37° C. in the dark for 8 min. Termination solution 1M HCl was added to terminate the color development reaction at 100 μL/well. Readings were taken at 450 nm on an ELISA reader.

Read-outs that look alike come from different tables or passages of the source.

B1: anti-CD24 control antibody (variable region SEQ ID NO: 9 and SEQ ID NO: 13, constant region of human IgG1 SEQ ID NO: 85 and SEQ ID NO: 86) (antibody, V domains shown)
VH: EVQLQESGPGLVKPSQTLSLTCTVSGYSITSGYTWHWIRQFPGNKLEWIGHIQYTGNTKYNPSLESRITISRDTSKNQFSLKLSSVTAADTATYYCARGSTNSNDYWGQGTLVTVSS
VL: DIVMTQSPSSLAVSLGERATINCKSSQSLLYSNDQKNYLAWYQQKPGQSPKLLIYWASTRESGVPDRFSGSGSGTDFTLTISSLQAEDVAVYYCQQYFIYPLTFGGGTKLELKR
Consider B1, for which the “E1 Mean PE-A” value in test [1] was found to be 4.45e+06.

B2: anti-TNFR2 control antibody (variable region SEQ ID NO: 83 and SEQ ID NO: 84, constant region of human IgG1 SEQ ID NO: 85 and SEQ ID NO: 86) (antibody, V domains shown)
VH: EVQLVQSGAEVKKPGATVKISCKVSGYSITDYLLHWVQQAPGKGLEWMGWIDPEDAKTKYGQKFQSRVTITADTSTDTAYMELSSLRSEDTAVYYCAANSGTGTMDAWGQGTLVTVSS
VL: DIVMTQSPATLSVSPGERATLSCKASQNVGSNVDWYQQKPGQSPRVLIYKASIRYTGIPARFSGSGSGTEFTLTISILQSEDFAVYFCMQSKSYPITFGQGTKLEIKR
notes: also called Positive control 1
By EC50 (read off the curve) is commonly meant the concentration giving half of the maximal effect. A lower EC50 (read off the curve) goes with an effect from little substance. The Kd is the concentration at which binding is half-saturated. Lower therefore signals tighter binding. Usually koff stands for a measure of how fast the partners let go of each other. Read a high koff as fast dissociation. For orientation: kon means the second-order rate constant of association. On to B2, for which the “EC50 (read off the curve)” value in test [2] was about 0.03 nM. In test [3], the “EC50 (read off the curve)” value was about 0.03 nM. In test [4], this molecule came in with a Kd of 0.324 nM, a koff of 0.000127 s⁻¹ and a kon of 391000 M⁻¹ s⁻¹.

B3: TB-C1 (bispecific antibody, human IgG1, kappa)
light: DIVMTQSPATLSVTPGDRVSLSCRASQSISDYLHWYQQKSHESPRLLIKYASQSISGIPSRFSGSGSGSDFTLSINSVEPEDVGVYYCQNGHSFPLTFGAGTKLELKRTVAAPSVFIFPPSDEQLKSGTASVVCLLNNFYPREAKVQWKVDNALQSGNSQESVTEQDSKDSTYSLSSTLTLSKADYEKHKVYACEVTHQGLSSPVTKSFNRGEC
heavy: not shown
notes: also called antibody TB-C1
For B3, the results for the Kd in test [5] and in test [4] were 159 nM and 2.89 nM, respectively. In addition, the results for the koff in test [5] and in test [4] were 0.00174 s⁻¹ and 0.000665 s⁻¹, respectively. In addition, the kon came to 10900 M⁻¹ s⁻¹ in test [5] and 230000 M⁻¹ s⁻¹ in test [4]. For the same molecule, the “EC50 (read off the curve)” value in test [6] is about 0.5 nM; in test [7], about 0.3 nM.

B4: Positive control 2 (variable region SEQ ID NO: 41) (VHH)
VHH: EVQLVESGGGLVQPGGSLRLSCAASGSRLDYYAVAWFRQAPGKEREEVSCITYSGGSTNYAESVKGRFTISRDNSKNTLYLQMNSLRAEDTAVYYCTTEPYGSSCPLSGYDTWGQGTLVTVSS
notes: not shown: it was loaded on an AHC (anti-human Fc) sensor
B4: in test [2], the “EC50 (read off the curve)” value was about 0.05 nM. Besides, in test [4], binding was characterised by a dissociation constant (Kd) of 1.61 nM, the koff is 0.000427 s⁻¹ and the kon is 266000 M⁻¹ s⁻¹.
